The text below walks through data of publication PMC4174438.

The data set concerns the target RtcA (RNA 3'-phosphate cyclase) (Pyrococcus horikoshii, UniProt O59198 1-341). The data set is described as follows: EMSA.

Chain of RtcA (RNA 3'-phosphate cyclase) (O59198 whole entry): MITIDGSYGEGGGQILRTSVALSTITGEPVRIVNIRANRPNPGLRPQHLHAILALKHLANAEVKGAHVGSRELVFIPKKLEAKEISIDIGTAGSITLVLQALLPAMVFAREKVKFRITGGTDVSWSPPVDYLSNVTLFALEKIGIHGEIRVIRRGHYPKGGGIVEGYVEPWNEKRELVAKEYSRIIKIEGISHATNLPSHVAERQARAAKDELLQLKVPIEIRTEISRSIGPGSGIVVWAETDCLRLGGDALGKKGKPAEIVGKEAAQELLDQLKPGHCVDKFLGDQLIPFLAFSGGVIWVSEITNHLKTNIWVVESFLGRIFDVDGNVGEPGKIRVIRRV

CGUUUU (ssRNA, 3'-phosphate) [U6 6-mer RNA 3'-p]: the binding result was “binds”.
